Test results from PMC4046507 (2014).

Target: T1, proteolipoprotein (PLP), substituted analog peptide on I-Ag7 (mouse, substituted analog of PLP 56-70 carrying lysine for tyrosine at positions 57 and 59 (residues worked out from the printed peptide and this description; the analog's own residues are not given))
T1 peptide: DKEKLINVIHAFQYV
Assay: cytokine release

B1: Th2-derived TCRαβ transgenic receptor (TRAV17 TRAJ50 / TRBV31 TRBJ2-3) (TCR)
alpha TRAV17 TRAJ50 CDR3: CALEGIASSSFSKLVF
beta TRBV31 TRBJ2-3 CDR3: CAWSLGGGAETLYF
B1: recognises.
